Reference: PMC3340446

Columns and labels:
[1] = biological target: Trypanosoma brucei AlkB homolog (TbABH-His6) (Trypanosoma brucei brucei (strain 427 genomic DNA)); test: SEC
[2] = biological target: Trypanosoma brucei AlkB homolog (TbABH-His6) (Trypanosoma brucei brucei (strain 427 genomic DNA)); test: native gel or EMSA

- stoichiometry N [1]: 2
- stoichiometry N [2]: 4
Substance: Trypanosoma brucei AlkB homolog (TbABH-His6) (enzyme)
